The values that follow come from patent publication US6875743B1, “Cell adhesion inhibitors” (Biogen, Inc., priority 1996, dated 2005).

* marks the point of attachment. 2‑MPUPA = 4-(N′-(2-methylphenyl)urea)phenylacetyl, Cc1ccccc1NC(=O)Nc1ccc(CC(=O)*)cc1; Quinaldoyl = O=C(c1ccc2ccccc2n1)*; Boc = CC(C)(C)OC(=O)*; Bz = O=C(c1ccccc1)*; Ahx = NCCCCCC(=O)O

The target in one test is T1, VLA4 (Homo sapiens, UniProt P05556+P13612).
T1 construct: endogenous in cells; host or cells: Ramos cells
Briefly: Inhibition of VLA4-dependent adhesion to BSA-CS1. The class given is cell-based. The settings on record: binding of BCECF-labelled Ramos cells to BSA-CS1 coated wells, 2 mM MnCl2; read-out: IC50.

Test [1] has as its target T2, α4β1 integrin, very late antigen-4 (VLA-4) (UniProt P13612 34-1032; P05556 21-798, limits assumed).
T2 construct: whole, on cells; also called CD49d/CD29
Put plainly: inhibition of Ramos cell adhesion to BSA-CS1. How it is done: Following labelling, the cells were washed twice in assay buffer (24 mM TRIS, 137 mM NaCl, 2.7 mM KCl, pH 7.4, containing 0.1% BSA and 2 mM glucose) to remove any cations originating from the culture medium. The cells were then resuspended in assay buffer to 4×10⁶ cells/mL and 2 mM MnCl_2 was added to upregulate VLA4 on the surface of the cells.
Immediately prior to running the assay, we removed the BSA blocking solution from the 96-well plates and washed the wells with 100 μL of assay buffer. We then added to each well 25 μL of test cell adhesion inhibitory compound at 2× the final concentration and 25 μL of the labelled Ramos cells. […] Each concentration of compound was tested in triplicate. The compound and cells are allowed to incubate for 30 minutes at room temperature.
Percent binding is calculated by the formula: […]

T2 sequence (P13612 34-1032 limits assumed, chain 1 of 2): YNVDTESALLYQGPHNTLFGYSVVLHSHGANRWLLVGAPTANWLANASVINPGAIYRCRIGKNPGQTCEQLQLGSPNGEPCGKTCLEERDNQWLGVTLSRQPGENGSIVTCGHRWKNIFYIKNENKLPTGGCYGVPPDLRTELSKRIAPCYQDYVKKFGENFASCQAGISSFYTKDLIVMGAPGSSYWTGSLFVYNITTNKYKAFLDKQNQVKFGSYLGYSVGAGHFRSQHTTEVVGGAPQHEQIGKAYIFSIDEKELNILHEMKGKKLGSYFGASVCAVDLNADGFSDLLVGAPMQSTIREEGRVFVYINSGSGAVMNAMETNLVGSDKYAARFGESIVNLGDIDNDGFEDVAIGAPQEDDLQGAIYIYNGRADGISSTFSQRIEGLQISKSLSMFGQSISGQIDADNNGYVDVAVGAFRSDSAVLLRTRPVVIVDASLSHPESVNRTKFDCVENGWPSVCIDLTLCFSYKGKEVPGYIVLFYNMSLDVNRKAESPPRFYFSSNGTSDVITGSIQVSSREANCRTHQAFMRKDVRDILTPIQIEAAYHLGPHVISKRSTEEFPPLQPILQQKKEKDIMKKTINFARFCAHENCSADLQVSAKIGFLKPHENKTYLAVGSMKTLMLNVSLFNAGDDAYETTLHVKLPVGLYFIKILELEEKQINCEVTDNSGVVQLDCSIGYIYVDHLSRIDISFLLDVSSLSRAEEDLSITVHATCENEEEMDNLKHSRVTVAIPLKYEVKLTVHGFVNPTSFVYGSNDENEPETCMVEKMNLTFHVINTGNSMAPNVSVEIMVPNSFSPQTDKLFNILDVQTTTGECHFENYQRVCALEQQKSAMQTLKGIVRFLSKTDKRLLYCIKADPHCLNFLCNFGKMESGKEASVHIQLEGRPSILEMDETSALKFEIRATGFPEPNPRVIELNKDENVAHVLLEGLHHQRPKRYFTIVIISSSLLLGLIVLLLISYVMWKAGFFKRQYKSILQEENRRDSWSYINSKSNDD
T2 sequence (P05556 21-798 limits assumed, chain 2 of 2): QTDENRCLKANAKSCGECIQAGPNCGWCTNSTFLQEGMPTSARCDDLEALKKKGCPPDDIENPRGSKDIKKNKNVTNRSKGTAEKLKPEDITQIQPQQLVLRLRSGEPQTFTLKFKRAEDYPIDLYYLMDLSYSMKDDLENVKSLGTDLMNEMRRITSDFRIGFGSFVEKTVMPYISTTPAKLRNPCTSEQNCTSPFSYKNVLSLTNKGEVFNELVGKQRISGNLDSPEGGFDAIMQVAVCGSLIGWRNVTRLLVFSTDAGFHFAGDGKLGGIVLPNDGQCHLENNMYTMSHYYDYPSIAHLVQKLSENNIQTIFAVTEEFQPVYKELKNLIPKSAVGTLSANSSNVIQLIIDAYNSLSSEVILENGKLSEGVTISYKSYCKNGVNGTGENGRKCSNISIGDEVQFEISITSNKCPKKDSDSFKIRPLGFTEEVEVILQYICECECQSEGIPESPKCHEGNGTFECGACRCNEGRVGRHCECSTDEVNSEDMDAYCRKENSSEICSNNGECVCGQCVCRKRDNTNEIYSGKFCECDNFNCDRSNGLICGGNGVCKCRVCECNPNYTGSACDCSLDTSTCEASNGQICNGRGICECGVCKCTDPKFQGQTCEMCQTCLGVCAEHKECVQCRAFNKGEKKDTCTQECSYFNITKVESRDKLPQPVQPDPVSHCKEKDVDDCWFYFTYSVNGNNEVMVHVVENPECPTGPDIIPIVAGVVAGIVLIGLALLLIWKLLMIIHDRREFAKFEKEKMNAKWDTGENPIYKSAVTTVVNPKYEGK
T1 sequence (P13612 34-1032): as the sequence (P13612 34-1032 limits assumed, chain 1 of 2) above
T1 sequence (P05556 21-798): as the sequence (P05556 21-798 limits assumed, chain 2 of 2) above

In general, IC50 refers to the concentration needed to halve the response being measured. As for `Cc1ccccc1NC(=O)Nc1ccc(CC(=O)N[C@@H](CCC(N)=O)C(=O)N[C@@H](CC(=O)O)C(=O)N[C@@H](Cc2c[nH]c3ccccc23)C(N)=O)cc1` [Compound 306], the IC50 on VLA4 is below 0.05 µM.

B1: Compound 341 (peptide)
peptide: {2‑MPUPA}-LPVD-OH
SMILES: Cc1ccccc1NC(=O)Nc1ccc(CC(=O)N[C@@H](CC(C)C)C(=O)N2CCC[C@H]2C(=O)N[C@H](C(=O)N[C@@H](CC(=O)O)C(=O)O)C(C)C)cc1
For the molecule B1, the IC50 in test [1] is above 10 µM.

B2: Compound 153 (peptide)
peptide: Bz-FLDV-OH
SMILES: CC(C)C[C@H](NC(=O)[C@H](Cc1ccccc1)NC(=O)c1ccccc1)C(=O)N[C@@H](CC(=O)O)C(=O)N[C@H](C(=O)O)C(C)C
In turn, B2 came in with an IC50 in test [1] above 10 µM.

B3: Compound 339 (peptide)
peptide: {2‑MPUPA}-VLPD-OH
SMILES: Cc1ccccc1NC(=O)Nc1ccc(CC(=O)N[C@H](C(=O)N[C@@H](CC(C)C)C(=O)N2CCC[C@H]2C(=O)N[C@@H](CC(=O)O)C(=O)O)C(C)C)cc1
As to B3, in test [1], the IC50 is above 10 µM.

B4: Compound 338 (peptide)
peptide: {2‑MPUPA}-LDVPST-OH
SMILES: Cc1ccccc1NC(=O)Nc1ccc(CC(=O)N[C@@H](CC(C)C)C(=O)N[C@@H](CC(=O)O)C(=O)N[C@H](C(=O)N2CCC[C@H]2C(=O)N[C@@H](CO)C(=O)N[C@H](C(=O)O)[C@@H](C)O)C(C)C)cc1
B4: in test [1], the IC50 is below 0.05 µM. On to {3‑methoxy‑4‑(N'-phenylurea)phenylacetyl}-MDVP-OH [Compound 2], for which, in test [1], the IC50 was below 0.05 µM.

Take {4‑(N'-2-hydroxyphenylurea)phenylacetyl}-MDVP-OH [Compound 146]: in test [1], the IC50 was below 0.05 µM.

B5: Compound 168 (peptide)
peptide: Quinaldoyl-LDVM-OMe
SMILES: COC(=O)[C@H](CCSC)NC(=O)[C@@H](NC(=O)[C@H](CC(=O)O)NC(=O)[C@H](CC(C)C)NC(=O)c1ccc2ccccc2n1)C(C)C
With B5, the IC50 in test [1] was 0.05 to 10 µM.

B6: Compound 186 (peptide)
peptide: Quinaldoyl-LDVM-OH
SMILES: CSCC[C@H](NC(=O)[C@@H](NC(=O)[C@H](CC(=O)O)NC(=O)[C@H](CC(C)C)NC(=O)c1ccc2ccccc2n1)C(C)C)C(=O)O
In test [1], B6 came in with an IC50 above 10 µM.

B7: Compound 315 (peptide)
peptide: {2‑MPUPA}-MDVP-OH
SMILES: CSCC[C@H](NC(=O)Cc1ccc(NC(=O)Nc2ccccc2C)cc1)C(=O)N[C@@H](CC(=O)O)C(=O)N[C@H](C(=O)N1CCC[C@H]1C(=O)O)C(C)C
Molecule B7 yielded an IC50 in test [1] below 0.05 µM.

B8: Compound 167 (peptide)
peptide: Boc-LDVM-OMe
SMILES: COC(=O)[C@H](CCSC)NC(=O)[C@@H](NC(=O)[C@H](CC(=O)O)NC(=O)[C@H](CC(C)C)NC(=O)OC(C)(C)C)C(C)C
Regarding B8, the IC50 in test [1] was above 10 µM.

B9: Compound 202 (peptide)
peptide: {2‑MPUPA}-K(Ahx)DVP-OH
SMILES: Cc1ccccc1NC(=O)Nc1ccc(CC(=O)N[C@@H](CCCCNC(=O)CCCCCN)C(=O)N[C@@H](CC(=O)O)C(=O)N[C@H](C(=O)N2CCC[C@H]2C(=O)O)C(C)C)cc1
As for B9, the IC50 in test [1] was 0.05 to 10 µM.

For the molecule {2‑MPUPA}-LDVPS-OH [Compound 337], the IC50 in test [1] is below 0.05 µM.

In turn, Ac-FLDV-OH [Compound 152] came in with an IC50 in test [1] above 10 µM.
